T1: Swi1 (S. cerevisiae, UniProt P09547 1-1314)
T1 construct: Swi1, subunit of the S. cerevisiae Swi/Snf complex; endogenous protein; Only part of the chain is modelled (C-terminus with seven ARM repeats, α1, β1); For cryo-EM the complex was cross-linked with 1 mM BS3; source: endogenous, S. cerevisiae; purified as part of the Swi/Snf complex through Snf6-3Flag (ANTI-FLAG M2 resin, Superose 6)
T1 sequence (looked up): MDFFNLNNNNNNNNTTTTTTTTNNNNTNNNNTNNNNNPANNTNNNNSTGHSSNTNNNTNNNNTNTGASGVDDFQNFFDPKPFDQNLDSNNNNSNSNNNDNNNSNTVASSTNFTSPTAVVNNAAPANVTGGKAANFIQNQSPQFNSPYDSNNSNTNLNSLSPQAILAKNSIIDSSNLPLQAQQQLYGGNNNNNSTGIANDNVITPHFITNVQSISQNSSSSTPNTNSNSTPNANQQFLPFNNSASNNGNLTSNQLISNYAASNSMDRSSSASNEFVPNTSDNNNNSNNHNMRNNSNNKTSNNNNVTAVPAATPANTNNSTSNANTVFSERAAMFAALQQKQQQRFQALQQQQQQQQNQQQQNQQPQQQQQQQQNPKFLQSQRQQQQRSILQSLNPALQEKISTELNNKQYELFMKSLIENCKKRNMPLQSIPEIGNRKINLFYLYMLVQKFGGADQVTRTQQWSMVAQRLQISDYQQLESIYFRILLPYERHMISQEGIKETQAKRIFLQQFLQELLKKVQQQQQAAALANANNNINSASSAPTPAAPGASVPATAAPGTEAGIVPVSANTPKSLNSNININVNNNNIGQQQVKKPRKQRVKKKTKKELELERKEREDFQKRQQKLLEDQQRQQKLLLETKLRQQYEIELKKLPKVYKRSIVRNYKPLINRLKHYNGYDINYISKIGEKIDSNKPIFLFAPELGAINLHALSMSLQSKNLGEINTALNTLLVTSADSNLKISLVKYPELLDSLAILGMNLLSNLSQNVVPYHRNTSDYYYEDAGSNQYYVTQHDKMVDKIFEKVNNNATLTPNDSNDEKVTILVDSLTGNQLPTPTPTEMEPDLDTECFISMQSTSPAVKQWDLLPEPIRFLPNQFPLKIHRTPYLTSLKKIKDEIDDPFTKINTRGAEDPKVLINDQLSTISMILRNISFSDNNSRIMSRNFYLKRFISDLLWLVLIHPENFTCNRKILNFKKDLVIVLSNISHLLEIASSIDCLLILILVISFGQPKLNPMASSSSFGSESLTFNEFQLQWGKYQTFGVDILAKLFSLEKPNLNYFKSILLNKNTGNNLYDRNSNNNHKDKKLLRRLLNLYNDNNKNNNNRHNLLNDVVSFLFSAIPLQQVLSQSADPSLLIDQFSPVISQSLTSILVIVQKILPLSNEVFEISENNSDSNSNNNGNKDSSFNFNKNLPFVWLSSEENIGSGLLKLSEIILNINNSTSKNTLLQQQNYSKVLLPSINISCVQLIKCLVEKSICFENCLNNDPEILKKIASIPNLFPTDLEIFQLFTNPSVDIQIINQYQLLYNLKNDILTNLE

B1: Swi3 (natural protein, S. cerevisiae, UniProt P32591 1-825, looked up)
chain: MENTLGEGSTVNASVDVDQHGNDNNSDSNANAAVAGVANTDTAGEESQQQDESLKDEATVPNTRDAESEAITVTAKQQPTMQANKLDSQETPSTEESRAQNVFGQDNEDSDNLFGETESSVSNNEANTPSIPTNPVDNENNKPAIKEDSTIQDSNGDVKNMEDVKIQKEEEPENNTVIEGVKEESQPDENTKEMDEVEEDDEDDDQPMISPDNSIFGDTKSESKQLGNTSSVANTPSEIPDAHKAEQEDIIEKTESVDKKVDSGEERNEQEREIMNDHSKSANPKKTTITRVEPETFEIPQAHEIVIPSYSKWFNLEKIHSIEVQSLPEFFTNRIPSKTPEVYMRYRNFMVNSYRLNPNEYFSVTTARRNVSGDAAALFRLHKFLTKWGLINYQVDSKLLPKNIEPPLTSQYSTRHDAPRGLFPFESYKPSVQLPDMAKLKKMMNTSDSESTLYKYLKESKRKYDEITHPPSTTDDENGDKNDNGGKMNNEVSTSTSMTGDANLLEEGETSRPLKKVKILEQIDENWSKEDLQKLLKGIQEFGADWYKVAKNVGNKSPEQCILRFLQLPIEDKFLYGDGNGKGDNDNGLGPLKYAPHLPFSKSENPVLSTIAFLVGLVNPKTVQSMTQRAIQSAESIKSQKEEISDQKPIEHIKEGSEIAISSLGYRSHIFATNEERQMNFLTNELIRLQMEKLDAKLNHLKKLEKFMELERKTLERQQENLLIQRLNFNQNSSKIVNVLSKCLNLISDSNINNSSVAEKEEIRSQIDHFKSMLSKPETLSIGKNPFNKPNIETGENHNGQSISNENDVKPISIEAPQFYRYWSA
notes: Swi3, subunit of the S. cerevisiae Swi/Snf complex; endogenous protein; two copies (chains A and B) in the model; also called Swi3A; Swi3B; source: endogenous, S. cerevisiae; purified as part of the Swi/Snf complex through Snf6-3Flag (ANTI-FLAG M2 resin, Superose 6)

Tests used:
Assay in all cases: cryo-EM structure; endogenous Swi/Snf complex purified as a whole through Snf6-3Flag, nucleosome-free, cross-linked with 1 mM BS3, 20 mM HEPES pH 7.4, 350 mM NaCl; 4.1 Å average, 2.9 Å for the base module
Swi3 = target: B1; conditions: both partners purified
Snf5 = target: T2, Snf5 (S. cerevisiae, UniProt P18480 1-905); conditions: both partners purified
T2 construct: Snf5, subunit of the S. cerevisiae Swi/Snf complex; endogenous protein; For cryo-EM the complex was cross-linked with 1 mM BS3; source: endogenous, S. cerevisiae; purified as part of the Swi/Snf complex through Snf6-3Flag (ANTI-FLAG M2 resin, Superose 6)
T2 sequence (P18480 whole entry): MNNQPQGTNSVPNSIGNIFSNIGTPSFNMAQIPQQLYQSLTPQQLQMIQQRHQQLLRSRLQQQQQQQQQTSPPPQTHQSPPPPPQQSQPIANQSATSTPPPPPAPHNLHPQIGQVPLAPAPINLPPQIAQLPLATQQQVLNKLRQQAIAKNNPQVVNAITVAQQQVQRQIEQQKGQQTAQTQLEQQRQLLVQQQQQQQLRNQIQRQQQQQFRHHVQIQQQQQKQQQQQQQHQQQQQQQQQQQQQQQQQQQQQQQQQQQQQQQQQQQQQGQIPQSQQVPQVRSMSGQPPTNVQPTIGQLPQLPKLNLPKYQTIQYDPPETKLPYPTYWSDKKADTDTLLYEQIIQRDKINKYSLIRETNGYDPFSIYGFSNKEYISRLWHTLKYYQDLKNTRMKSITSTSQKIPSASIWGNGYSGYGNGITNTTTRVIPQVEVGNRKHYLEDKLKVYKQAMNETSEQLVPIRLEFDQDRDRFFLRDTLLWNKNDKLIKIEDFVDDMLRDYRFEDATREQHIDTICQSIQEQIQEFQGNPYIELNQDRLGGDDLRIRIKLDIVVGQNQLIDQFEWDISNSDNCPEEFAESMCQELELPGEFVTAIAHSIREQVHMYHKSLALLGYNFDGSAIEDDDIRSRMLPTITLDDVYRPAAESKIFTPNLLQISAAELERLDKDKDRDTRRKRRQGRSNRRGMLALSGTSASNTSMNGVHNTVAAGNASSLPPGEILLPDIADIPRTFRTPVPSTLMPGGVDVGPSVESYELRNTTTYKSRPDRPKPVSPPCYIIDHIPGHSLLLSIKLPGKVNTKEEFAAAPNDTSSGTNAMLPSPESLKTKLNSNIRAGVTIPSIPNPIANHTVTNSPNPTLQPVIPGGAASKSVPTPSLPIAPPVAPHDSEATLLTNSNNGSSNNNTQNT

Snf2 = target: T3, Snf2 (S. cerevisiae, UniProt P22082 1-1703); conditions: both partners purified
T3 construct: Snf2, ATPase-containing subunit of the S. cerevisiae Swi/Snf complex; endogenous protein; Only the preHSA domain and the HSA helix are seen in the map; the ATPase domain is absent from the structure; For cryo-EM the complex was cross-linked with 1 mM BS3; source: endogenous, S. cerevisiae; purified as part of the Swi/Snf complex through Snf6-3Flag (ANTI-FLAG M2 resin, Superose 6)
T3 sequence (P22082 whole entry, the tested form may be a part): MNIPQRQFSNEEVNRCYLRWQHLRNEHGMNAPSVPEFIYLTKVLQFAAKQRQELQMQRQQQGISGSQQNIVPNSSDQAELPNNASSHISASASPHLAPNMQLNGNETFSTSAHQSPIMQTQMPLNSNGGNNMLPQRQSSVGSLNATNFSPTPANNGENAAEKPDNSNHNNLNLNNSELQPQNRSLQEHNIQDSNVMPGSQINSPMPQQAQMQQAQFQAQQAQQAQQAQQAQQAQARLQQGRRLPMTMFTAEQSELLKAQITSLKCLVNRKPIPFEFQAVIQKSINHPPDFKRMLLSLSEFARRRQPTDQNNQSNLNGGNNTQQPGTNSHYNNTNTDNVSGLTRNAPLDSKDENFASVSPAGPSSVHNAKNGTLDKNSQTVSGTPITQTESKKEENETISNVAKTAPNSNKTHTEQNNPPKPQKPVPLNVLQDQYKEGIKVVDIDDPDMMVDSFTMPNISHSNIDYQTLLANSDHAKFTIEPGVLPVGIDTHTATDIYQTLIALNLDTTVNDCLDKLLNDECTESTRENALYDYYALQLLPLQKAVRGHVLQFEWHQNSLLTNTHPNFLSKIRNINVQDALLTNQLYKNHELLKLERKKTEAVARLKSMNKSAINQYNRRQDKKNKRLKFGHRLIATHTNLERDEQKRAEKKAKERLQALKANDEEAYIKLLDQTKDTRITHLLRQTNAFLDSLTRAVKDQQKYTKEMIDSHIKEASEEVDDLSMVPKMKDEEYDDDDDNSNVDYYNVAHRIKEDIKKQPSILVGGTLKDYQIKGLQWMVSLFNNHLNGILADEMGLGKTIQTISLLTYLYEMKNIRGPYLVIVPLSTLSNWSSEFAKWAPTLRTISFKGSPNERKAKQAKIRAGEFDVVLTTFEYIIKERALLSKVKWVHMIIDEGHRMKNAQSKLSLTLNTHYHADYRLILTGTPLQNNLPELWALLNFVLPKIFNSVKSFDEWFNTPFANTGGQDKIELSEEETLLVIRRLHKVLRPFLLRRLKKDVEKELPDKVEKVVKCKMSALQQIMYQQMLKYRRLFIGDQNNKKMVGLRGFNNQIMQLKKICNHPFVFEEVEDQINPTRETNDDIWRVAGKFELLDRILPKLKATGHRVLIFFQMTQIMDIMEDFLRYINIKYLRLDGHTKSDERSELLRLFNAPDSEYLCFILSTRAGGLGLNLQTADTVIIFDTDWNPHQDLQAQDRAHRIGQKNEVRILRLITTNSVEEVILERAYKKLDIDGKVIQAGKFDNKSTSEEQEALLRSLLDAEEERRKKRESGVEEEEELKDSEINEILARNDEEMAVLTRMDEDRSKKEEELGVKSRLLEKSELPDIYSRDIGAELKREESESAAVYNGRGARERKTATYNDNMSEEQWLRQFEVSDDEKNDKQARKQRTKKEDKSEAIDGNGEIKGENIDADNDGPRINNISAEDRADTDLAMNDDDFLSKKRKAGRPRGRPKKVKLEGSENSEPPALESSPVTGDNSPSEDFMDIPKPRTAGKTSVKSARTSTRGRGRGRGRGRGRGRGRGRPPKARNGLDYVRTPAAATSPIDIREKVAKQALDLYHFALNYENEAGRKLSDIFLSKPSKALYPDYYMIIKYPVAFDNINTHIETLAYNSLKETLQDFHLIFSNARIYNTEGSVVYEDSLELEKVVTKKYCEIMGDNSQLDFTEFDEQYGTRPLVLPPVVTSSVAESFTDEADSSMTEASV

[1] = target: the molecule itself
Swi1 = target: T1, Swi1; conditions: both partners purified

Row | binding result (Swi3) | binding result (Snf5) | binding result (Snf2) | binding result (Swi1) | Binder | stoichiometry N [1]
1 | binds | binds | binds |  | Swp82 (natural protein, S. cerevisiae, UniProt P43554 1-623, looked up, Swp82, subunit of the S. cerevisiae Swi/Snf complex; endogenous protein; For cryo-EM the complex was cross-linked with 1 mM BS3; source: endogenous, S. cerevisiae; purified as part of the Swi/Snf complex through Snf6-3Flag (ANTI-FLAG M2 resin, Superose 6)) MLGEDEGNTVLEKGNNPSVKQGEVGAVFIVPKILIREHERVILKQILQILDQDELVQPPLDKFPYKKLELPKYIDELKTRDATNTSYKMIQLDAYGEKKVGSNGELFGGRHYLFNTFTFTAHMGVLLVLLQDVIKVLYQSNATHDEDEFIVQHDQILVMETSEEQTKFLAKNGVIPEESKGSFKYITARSAFVEFGASVIAGGQRIVDDYWESLAKKQNLSSHQRVFKLSTNLISKISLLRPSFQNNRISNANEISANTNNTCTISTSKFESQYPIVTEQPSAEIREAYIENFAKGEHISAIVPGQSISGTLELSAQFRVPRYHSKNSFQQALQMKAMDIPIGRHEELLAQYESQAPDGSASISLPNHIPSVNPSNKPIKRMLSSILDINVSSSKNKKSEENEMIKPMNKGQHKNNTSLNINGWKFESLPLKSAENSGKQQYYRGLPLYEKNTLLERLKQLTPNEIKELEHLHDAVFVNTGLQNVRKVRTKKWKKYWQYKAGIPIGLKRSQLDEFKNKYLKDVLAQTSVTTNFNEITNTDETITTKRVPNPNFLGNCNIKDFKPPYIYSHVNKVPQNVAGDKTAVKLDTEVKNTNANPVVATDPVAAKPDNLANFSNEVAMNN | 
2 |  | binds | binds | binds | B1 | 2
